The numbers were not newly measured in article PMC7302117, which cites them from elsewhere.

The target of this series is ELK1 (Homo sapiens) (UniProt P19419).
Sequence of UniProt P19419 (P19419 whole entry): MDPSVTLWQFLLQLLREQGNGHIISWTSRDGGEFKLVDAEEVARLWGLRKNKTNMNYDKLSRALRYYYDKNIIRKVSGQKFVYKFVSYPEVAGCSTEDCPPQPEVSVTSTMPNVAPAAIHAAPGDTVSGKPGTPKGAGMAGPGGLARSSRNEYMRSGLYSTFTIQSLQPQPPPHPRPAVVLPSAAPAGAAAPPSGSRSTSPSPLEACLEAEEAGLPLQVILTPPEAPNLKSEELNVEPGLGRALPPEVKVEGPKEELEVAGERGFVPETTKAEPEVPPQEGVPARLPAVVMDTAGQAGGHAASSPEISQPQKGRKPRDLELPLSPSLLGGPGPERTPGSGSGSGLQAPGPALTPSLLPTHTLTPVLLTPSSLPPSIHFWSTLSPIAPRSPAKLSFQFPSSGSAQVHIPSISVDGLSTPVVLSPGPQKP

Turning to “Androgen receptor A/B domain (from UniProt P10275)”, the Kd is 20 nM.

One may read the Kd as the equilibrium constant for the complex coming apart.
